Results on one molecule are retold here after publication PMC11612968, “Endo-bind-n-seq: identifying RNA motifs of RNA binding proteins isolated from endogenous sources”.

In the data set the target is T1, GST-ZC3H7B(415-956) (UniProt Q9UGR2 415-956).
T1 sequence: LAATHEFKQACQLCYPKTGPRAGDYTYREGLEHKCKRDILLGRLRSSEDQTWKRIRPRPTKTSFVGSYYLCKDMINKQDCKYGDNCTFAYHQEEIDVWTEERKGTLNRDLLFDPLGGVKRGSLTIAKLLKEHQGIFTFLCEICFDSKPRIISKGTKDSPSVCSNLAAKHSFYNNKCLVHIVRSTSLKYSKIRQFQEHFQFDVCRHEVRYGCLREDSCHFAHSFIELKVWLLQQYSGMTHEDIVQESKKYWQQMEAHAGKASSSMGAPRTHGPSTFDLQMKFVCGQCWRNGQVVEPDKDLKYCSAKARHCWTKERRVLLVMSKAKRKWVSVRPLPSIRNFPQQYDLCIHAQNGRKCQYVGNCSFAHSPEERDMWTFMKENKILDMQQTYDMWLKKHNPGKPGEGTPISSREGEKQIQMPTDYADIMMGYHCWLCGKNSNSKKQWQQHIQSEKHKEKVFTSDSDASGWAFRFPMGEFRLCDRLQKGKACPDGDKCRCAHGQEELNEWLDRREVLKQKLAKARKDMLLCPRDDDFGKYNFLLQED
In words: filter binding; Filter binding: 50 mM Tris-HCl pH 8.0, 150 mM NaCl, 5% glycerol, 20 C; EMSA: 20 mM HEPES-KOH pH 7.4, 100 mM NaCl, 1 mM MgCl2, 0.1% Tween20, 40 mM EDTA, 10% glycerol, 70 C; competition: 25 mM Tris-HCl pH 7.5, 150 mM KCl, 3 mM MgCl2, 0.01% NP-40, 1 mg/ml BSA, 1 mM DTT, 5% glycerol, RT. Particulars: protein: recombinant; tags: N-terminal GST (pGEX-4T-1, TEV site); label: 5' 32P. (In EMSA bound probe runs differently from free probe, usually more slowly.)

For the molecule AUAGUGUAGU (ssRNA) [ZC3H7B motif RNA (AUAG)], the binding result is given as “binds”.
